Data set [1] deals with HeLa Kyoto. Nature of the data set: solubility change mitosis vs G1/S (difference of NP-40 vs SDS log2 ratios) (log2 ratio difference); higher = more soluble in mitosis.
For data set [2], the system named is HeLa Kyoto. As to the kind of experiment: melting temperature (median over replicates), in situ; higher = more thermally stable.
Data set [3] has as its system HeLa Kyoto. Nature of the data set: solubility in G1/S (NP-40 vs SDS abundance) (log2 ratio); higher = more soluble. The note with it: cell cycle stage: G1/S.
Data set [4] concerns HeLa Kyoto. Nature of the data set: thermal stability score vs G1/S (z-score of summed log2 fold changes over temperatures); higher = more thermally stable than in G1/S.
The mark [5] stands for this setting: cell cycle stage: early G1 (4.5 h after nocodazole release).
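For melting temperature (median over replicates), in situ in this document: HeLa Kyoto cells synchronized by double thymidine or nocodazole block, proteins quantified by TMT10plex mass spectrometry, three independent biological replicates.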
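For solubility change mitosis vs G1/S (difference of NP-40 vs SDS log2 ratios) in this document: synchronized HeLa Kyoto cells (double thymidine block for G1/S, nocodazole release for mitosis), protein amounts in NP-40 versus SDS lysates quantified by mass spectrometry, three biological replicates.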
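For solubility in G1/S (NP-40 vs SDS abundance) in this document: HeLa Kyoto cells arrested at G1/S by double thymidine block, proteins quantified by TMT10plex mass spectrometry in mild NP-40 versus SDS extracts, three biological replicates.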
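For thermal stability score vs G1/S (z-score of summed log2 fold changes over temperatures) in this document: synchronized HeLa Kyoto cells, proteins quantified by TMT10plex mass spectrometry, three biological replicates, mitosis taken 0.5 h after nocodazole release, G1/S directly after double thymidine block.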

In the case of “MATASPAADGGRGRPWEGGLVSWPPAPPLTLPWTWMGPSWGQHPGHWGFPALTEPSASPAAGLGIFEVRRVLDASGCSMLAPLQTGAARFSSYLLSRARKVLGSHLFSPCGVPEFCSISTRKLAAHGFGASMAAMVSFPPQRYHYFLVLDFEATCDKPQIHPQEIIEFPILKLNGRTMEIESTFHMYVQPVVHPQLTPFCTELTGIIQAMVDGQPSLQQVLERVDEWMAKEGLLDPNVKSIFVTCGDWDLKVMLPGQCQYLGLPVADYFKQWINLKKAYSFAMGCWPKNGLLDMNKGLSLQHIGRPHSGIDDCKNIANIMKTLAYRGFIFKQTSKPF [ERI3]”, in the data set on HeLa Kyoto [1], the “solubility change mitosis (log2)” value was -0.0837. The sequence also returned a melting temperature in the data set on HeLa Kyoto [2] (cell cycle stage: mitosis) of 54.7 °C. For the same sequence, in the data set on HeLa Kyoto [3], the “solubility in G1/S (log2)” value is 0.0291. The results for the thermal stability score with HeLa Kyoto [4] (setting [5]) and in the data set on HeLa Kyoto [4] (cell cycle stage: mitosis) were 0.384 and -0.0416, respectively.

As to “MATEHVNGNGTEEPMDTTSAVIHSENFQTLLDAGLPQKVAEKLDEIYVAGLVAHSDLDERAIEALKEFNEDGALAVLQQFKDSDLSHVQNKSAFLCGVMKTYRQREKQGTKVADSSKGPDEAKIKALLERTGYTLDVTTGQRKYGGPPPDSVYSGQQPSVGTEIFVGKIPRDLFEDELVPLFEKAGPIWDLRLMMDPLTGLNRGYAFVTFCTKEAAQEAVKLYNNHEIRSGKHIGVCISVANNRLFVGSIPKSKTKEQILEEFSKVTEGLTDVILYHQPDDKKKNRGFCFLEYEDHKTAAQARRRLMSGKVKVWGNVGTVEWADPIEDPDPEVMAKVKVLFVRNLANTVTEEILEKAFSQFGKLERVKKLKDYAFIHFDERDGAVKAMEEMNGKDLEGENIEIVFAKPPDQKRKERKAQRQAAKNQMYDDYYYYGPPHMPPPTRGRGRGGRGGYGYPPDYYGYEDYYDYYGYDYHNYRGGYEDPYYGYEDFQVGARGRGGRGARGAAPSRGRGAAPPRGRAGYSQRGGPGSARGVRGARGGAQQQRGRGVRGARGGRGGNVGGKRKADGYNQPDSKRRQTNNQNWGSQPIAQQPLQGGDHSGNYGYKSENQEFYQDTFGQQWK [SYNCRIP]”, in the data set with HeLa Kyoto [1], the “solubility change mitosis (log2)” value was 0.0879. Moreover, the melting temperature in the data set with HeLa Kyoto [2] (cell cycle stage: G1/S) is 51.3 °C; in the data set with HeLa Kyoto [2] (cell cycle stage: mitosis) it was 50.8 °C. The “solubility in G1/S (log2)” value with HeLa Kyoto [3] was found to be 0.0281. The thermal stability score in the data set with HeLa Kyoto [4] (setting [5]) is -1.08; in the data set on HeLa Kyoto [4] (cell cycle stage: mitosis), -0.356.

As to “MATEQRPFHLVVFGASGFTGQFVTEEVAREQVDPERSSRLPWAVAGRSREKLQRVLEKAALKLGRPTLSSEVGIIICDIANPASLDEMAKQATVVLNCVGPYRFYGEPVIKACIENGASCIDISGEPQFLELMQLKYHEKAADKGVYIIGSSGFDSIPADLGVIYTRNKMNGTLTAVESFLTIHSGPEGLSIHDGTWKSAIYGFGDQSNLRKLRNVSNLKPVPLIGPKLKRRWPISYCRELKGYSIPFMGSDVSVVRRTQRYLYENLEESPVQYAAYVTVGGITSVIKLMFAGLFFLFFVRFGIGRQLLIKFPWFFSFGYFSKQGPTQKQIDAASFTLTFFGQGYSQGTGTDKNKPNIKICTQVKGPEAGYVATPIAMVQAAMTLLSDASHLPKAGGVFTPGAAFSKTKLIDRLNKHGIEFSVISSSEV [SCCPDH]”, the “solubility change mitosis (log2)” value with HeLa Kyoto [1] stood at 0.0063. In addition, the melting temperature turned out to be 53.2 °C in the data set with HeLa Kyoto [2] (cell cycle stage: G1/S) and 54 °C in the data set with HeLa Kyoto [2] (cell cycle stage: mitosis). The “solubility in G1/S (log2)” value with HeLa Kyoto [3] is -0.086. For the same sequence, the thermal stability score in the data set with HeLa Kyoto [4] (setting [5]) was 0.42; in the data set on HeLa Kyoto [4] (cell cycle stage: mitosis), -2.32.

Turning to “MATGGYRTSSGLGGSTTDFLEEWKAKREKMRAKQNPPGPAPPGGGSSDAAGKPPAGALGTPAAAAANELNNNLPGGAPAAPAVPGPGGVNCAVGSAMLTRAAPGPRRSEDEPPAASASAAPPPQRDEEEPDGVPEKGKSSGPSARKGKGQIEKRKLREKRRSTGVVNIPAAECLDEYEDDEAGQKERKREDAITQQNTIQNEAVNLLDPGSSYLLQEPPRTVSGRYKSTTSVSEEDVSSRYSRTDRSGFPRYNRDANVSGTLVSSSTLEKKIEDLEKEVVRERQENLRLVRLMQDKEEMIGKLKEEIDLLNRDLDDIEDENEQLKQENKTLLKVVGQLTR [PAWR]”, the “solubility change mitosis (log2)” value in the data set on HeLa Kyoto [1] was 0.127. Besides, the figures for the melting temperature in the data set on HeLa Kyoto [2] (cell cycle stage: G1/S) and in the data set with HeLa Kyoto [2] (cell cycle stage: mitosis) were 60.6 °C and 55.7 °C, respectively. Moreover, the “solubility in G1/S (log2)” value with HeLa Kyoto [3] was 0.552. Besides, the thermal stability score with HeLa Kyoto [4] (setting [5]) was -0.931; in the data set on HeLa Kyoto [4] (cell cycle stage: mitosis) it was -1.76.

Consider “MATGQKLMRAVRVFEFGGPEVLKLRSDIAVPIPKDHQVLIKVHACGVNPVETYIRSGTYSRKPLLPYTPGSDVAGVIEAVGDNASAFKKGDRVFTSSTISGGYAEYALAADHTVYKLPEKLDFKQGAAIGIPYFTAYRALIHSACVKAGESVLVHGASGGVGLAACQIARAYGLKILGTAGTEEGQKIVLQNGAHEVFNHREVNYIDKIKKYVGEKGIDIIIEMLANVNLSKDLSLLSHGGRVIVVGSRGTIEINPRDTMAKESSIIGVTLFSSTKEEFQQYAAALQAGMEIGWLKPVIGSQYPLEKVAEAHENIIHGSGATGKMILLL [CRYZ]”, for which the “solubility change mitosis (log2)” value in the data set with HeLa Kyoto [1] is -0.187. The values for the melting temperature in the data set with HeLa Kyoto [2] (cell cycle stage: G1/S) and in the data set on HeLa Kyoto [2] (cell cycle stage: mitosis) were 55.2 °C and 55 °C, respectively. Besides, the “solubility in G1/S (log2)” value in the data set on HeLa Kyoto [3] was determined as 0.212. In addition, the figures for the thermal stability score in the data set on HeLa Kyoto [4] (setting [5]) and with HeLa Kyoto [4] (cell cycle stage: mitosis) were -0.614 and -0.806, respectively.

Consider “MATHGQTCARPMCIPPSYADLGKAARDIFNKGFGFGLVKLDVKTKSCSGVEFSTSGSSNTDTGKVTGTLETKYKWCEYGLTFTEKWNTDNTLGTEIAIEDQICQGLKLTFDTTFSPNTGKKSGKIKSSYKRECINLGCDVDFDFAGPAIHGSAVFGYEGWLAGYQMTFDSAKSKLTRNNFAVGYRTGDFQLHTNVNDGTEFGGSIYQKVCEDLDTSVNLAWTSGTNCTRFGIAAKYQLDPTASISAKVNNSSLIGVGYTQTLRPGVKLTLSALVDGKSINAGGHKVGLALELEA [VDAC2]”, for which, in the data set with HeLa Kyoto [1], the “solubility change mitosis (log2)” value was -0.0952. The melting temperature in the data set on HeLa Kyoto [2] (cell cycle stage: G1/S) is 59.9 °C; in the data set on HeLa Kyoto [2] (cell cycle stage: mitosis), 60.3 °C. Besides, the “solubility in G1/S (log2)” value with HeLa Kyoto [3] is -0.125. Besides, the thermal stability score in the data set with HeLa Kyoto [4] (setting [5]) is -1.16; in the data set on HeLa Kyoto [4] (cell cycle stage: mitosis), -4.22.

(Values after the supplement of paper PMC5998384.)
